Test results taken from patent US20210284724A1 (I MAB BIOPHARMA US, published 2021).
Changes are numbered by the printed parent chain.

T1: human CXCL13 (human, UniProt O43927 23-109)
T1 construct: also called huCXCL13; rhCXCL13
T1 sequence (looked up): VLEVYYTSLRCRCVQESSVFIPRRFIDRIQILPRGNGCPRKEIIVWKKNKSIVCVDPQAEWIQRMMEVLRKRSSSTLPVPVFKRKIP

B1: 71F4-4B12 (antibody, V domains shown)
VH: EVQLVESGGGLVQPGGSLRLSCAASGIDFSRYWMSWVRQAPGKGLEWVAEINPERNYINYAPSLKDRFTISRDNAKNSLYLQMNSLRAEDTAVYYCARQDDYDKYAMDYWGQGTTVTVSS
VL: DIQMTQSPSSLSASVGDRVTITCKASQDVNTGVTWYQQKPGKAPKLLIYSASYRYTGVPSRFSGSGSGTDFTFTISSLQPEDIATYYCQQYYSTPLTFGGGTKLEIK
notes: not certain; also called 71F4A3-B12
B2: 71F4A3-BD12 (antibody, V domains shown)
VH: B1 VH with R55T, N56T, Y57I, D103R, K104H
VL: B1 VL with T34A, Y36F
notes: also called 71F4-BD12
B3: 71F4A3-BE3 (antibody, V domains shown)
VH: B1 VH with R55S, N56S, Y57T, D103L, K104T
VL: B1 VL with G32A, T34D, Y36F
notes: also called 71F4-BE3
B4: 71F4A3-4H1 (antibody, V domains shown)
VH: B1 VH with R55S, N56T, Y57L, D103R, K104N
VL: B1 VL with T34S, Y36F
notes: also called 71F4-4H1
B5: 71F4A3-3F12 (antibody, V domains shown)
VH: B1 VH with R55S, Y57F, D103S, K104V
VL: B1 VL with Y36F
notes: also called 71F4-3F12
B6: 71F4A3-BC4 (antibody, V domains shown)
VH: B1 VH with R55A, N56G, Y57K, I58W, D103T, K104T
VL: B1 VL with T34S
notes: also called 71F4-BC4
B7: 71F4A3-5A4 (antibody, V domains shown)
VH: B1 VH with R55S, N56T, Y57G, D103W, K104T
VL: B1 VL with G32A, T34S, Y36T
notes: also called 71F4-5A4
B8: 71F4A3-BC1 (antibody, V domains shown)
VH: B1 VH with R55A, N56S, Y57S, D103S, K104H
VL: B1 VL with T34S, Y36S
notes: also called 71F4-BC1

biological target: T1, human CXCL13; assay: SPR Biacore T200
Excerpt: In the first approach, mutations were chosen to target the hotspots in LCDR1, HCDR2 and HCDR3. Usually, CDR3 contributes most to antigen binding and heavy chain is more important than light chain for antigen binding. Moreover, LCDR1 is important for antigen binding. For the first trial, random mutations were targeted to hotspots in LCDR1, HCDR2 and HCDR3. Eliminate hotspots that code for conserved and buried amino acids in CDRs. […] After finishing construction of phage library, antigen CXCL13 screening was followed. Antibodies of these sequences were generated, and affinity testing was performed by Biacore T200.

| kon | Binder |
| --- | --- |
| 5.36e+06 M⁻¹ s⁻¹ | B1 |
| 1.9e+06 M⁻¹ s⁻¹ | B2 |
| 1.03e+06 M⁻¹ s⁻¹ | B3 |
| 1.64e+07 M⁻¹ s⁻¹ | B4 |
| 6.3e+06 M⁻¹ s⁻¹ | B5 |
| 362000 M⁻¹ s⁻¹ | B6 |
| 6.58e+06 M⁻¹ s⁻¹ | B7 |
| 2.09e+06 M⁻¹ s⁻¹ | B8 |
